From US20230285227A1, “INGESTIBLE CAPSULES” (Massachusetts Institute of Technology, priority 2022, published 2023)
Where “and” joins values, the source holds several entries; their conditions need not be identical. Equal entries are not always repeated.

Key:
[1] = FITC-dextran uptake with capsule vs direct application
Source text: To assay the capability of the capsule to assist in the delivery of larger molecules, fluorescein isothiocyanate-(FITC) dextran having various molecular weights were delivered using the capsule, at various motor frequencies, and compared to direct application (controls).

[2] = Franz cell vancomycin permeability, capsule vs direct dilution in donor well; details: 25 tissue samples from n=5 animals, control = direct dilution in donor well, p<0.05
Procedure: Both helical and smooth exteriors were assessed. […] Given inter-animal variability of tissue properties, a ratio of permeability induced by the capsule to the control condition was calculated using a matched-pair format per animal.

[3] = vancomycin permeability in isolated small intestine sections of anesthetized swine, mesenteric venous blood; details: 100 mg vancomycin, capsules vs sham control pills, p<0.001
Source text: In anesthetized swine, sections of the small intestine were isolated to serve as independent testing sites while controlling for animal-specific properties such as hydration status, peristaltic rate, blood pressure, and perfusion.

[4] = oral insulin delivery via capsule or endoscopic spray in the small intestine, blood glucose and insulin monitoring; assay type: in vivo, swine
Procedure: Blood glucose and insulin concentrations were monitored for a 75-minute period with the drug delivery starting at 15 minutes.

[5] = oral insulin, background; cited from earlier work

## fluorescein isothiocyanate-(FITC) dextran
[1]; molecular weights 40 kDa and 70 kDa
  uptake increase at 40 kDa and 70 kDa: greatest increases
[1]; molecular weights as high as 150 kDa, various motor frequencies
  uptake with the capsule compared to direct application: significantly increase uptake

## CN[C@H](CC(C)C)C(=O)N[C@H]1C(=O)N[C@@H](CC(N)=O)C(=O)N[C@H]2C(=O)N[C@H]3C(=O)N[C@H](C(=O)N[C@H](C(=O)O)c4cc(O)cc(O)c4-c4cc3ccc4O)[C@H](O)c3ccc(c(Cl)c3)Oc3cc2cc(c3O[C@@H]2O[C@H](CO)[C@@H](O)[C@H](O)[C@H]2O[C@H]2C[C@](C)(N)[C@H](O)[C@H](C)O2)Oc2ccc(cc2Cl)[C@H]1O [vancomycin]
[2]
  increase of vancomycin drug permeability with capsule delivery compared to controls: over 10 fold
[3]
  tissue permeability with capsules relative to control: ≥ 20 times the control

## insulin
[4]; 100 units insulin by endoscopic spray in the small intestine (control), n=5
  variance of blood glucose from baseline: 16.6 ± 17.3 mg/dL
[4]; 100 units insulin via the capsule, n=7 animals, 75-minute monitoring
  average blood glucose reduction: 55.54 ± 16.1 mg/dL
[4]; capsule delivery of insulin
  uptake dynamics compared to subcutaneous or IV injection: more gradual uptake
[4]; insulin via the capsule
  time to changes in plasma glucose levels: ≤ 15 min
[4]; insulin via the capsule, ensued at 60 minutes
  animals with hypoglycemia (blood glucose<20 mg/dL) necessitating dextrose infusion: three and 3 out of 7
[5]
  oral bioavailability: less than 2.5%
